Experiment [1] deals with T1, soluble Homo sapiens CD131 comprising a C-terminal 6xHis tag (human, UniProt P32927 17-438).
T1 construct: truncated after Ser438, C-terminal 6xHis; also called shCD131; shβc
T1 sequence: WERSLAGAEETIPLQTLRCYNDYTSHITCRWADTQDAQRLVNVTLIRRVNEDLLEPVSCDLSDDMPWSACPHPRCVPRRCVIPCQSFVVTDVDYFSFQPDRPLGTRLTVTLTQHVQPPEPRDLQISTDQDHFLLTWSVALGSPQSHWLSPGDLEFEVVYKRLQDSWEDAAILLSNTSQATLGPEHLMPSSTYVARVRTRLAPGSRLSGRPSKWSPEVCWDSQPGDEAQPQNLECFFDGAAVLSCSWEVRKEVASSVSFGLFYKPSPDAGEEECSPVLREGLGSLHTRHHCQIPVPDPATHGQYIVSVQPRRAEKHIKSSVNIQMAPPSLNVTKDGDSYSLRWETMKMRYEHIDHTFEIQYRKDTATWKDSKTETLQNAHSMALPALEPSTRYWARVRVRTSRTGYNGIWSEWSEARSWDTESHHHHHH
In words: SPR, Fab over captured shCD131. A general note: SPR reads the build-up and loss of mass on a sensor chip optically.

The target in experiment [2] is T1, soluble Homo sapiens CD131 comprising a …. In words: SPR, kinetics, Fab over captured shCD131.
The target in experiment [3] is T2, human CD131 (human, UniProt P32927 17-897).
T2 construct: on transfected FS293F cells, TF-1 cells, human neutrophils and eosinophils, there together with the cytokine-specific alpha chains; also called hCD131; βc
T2 sequence: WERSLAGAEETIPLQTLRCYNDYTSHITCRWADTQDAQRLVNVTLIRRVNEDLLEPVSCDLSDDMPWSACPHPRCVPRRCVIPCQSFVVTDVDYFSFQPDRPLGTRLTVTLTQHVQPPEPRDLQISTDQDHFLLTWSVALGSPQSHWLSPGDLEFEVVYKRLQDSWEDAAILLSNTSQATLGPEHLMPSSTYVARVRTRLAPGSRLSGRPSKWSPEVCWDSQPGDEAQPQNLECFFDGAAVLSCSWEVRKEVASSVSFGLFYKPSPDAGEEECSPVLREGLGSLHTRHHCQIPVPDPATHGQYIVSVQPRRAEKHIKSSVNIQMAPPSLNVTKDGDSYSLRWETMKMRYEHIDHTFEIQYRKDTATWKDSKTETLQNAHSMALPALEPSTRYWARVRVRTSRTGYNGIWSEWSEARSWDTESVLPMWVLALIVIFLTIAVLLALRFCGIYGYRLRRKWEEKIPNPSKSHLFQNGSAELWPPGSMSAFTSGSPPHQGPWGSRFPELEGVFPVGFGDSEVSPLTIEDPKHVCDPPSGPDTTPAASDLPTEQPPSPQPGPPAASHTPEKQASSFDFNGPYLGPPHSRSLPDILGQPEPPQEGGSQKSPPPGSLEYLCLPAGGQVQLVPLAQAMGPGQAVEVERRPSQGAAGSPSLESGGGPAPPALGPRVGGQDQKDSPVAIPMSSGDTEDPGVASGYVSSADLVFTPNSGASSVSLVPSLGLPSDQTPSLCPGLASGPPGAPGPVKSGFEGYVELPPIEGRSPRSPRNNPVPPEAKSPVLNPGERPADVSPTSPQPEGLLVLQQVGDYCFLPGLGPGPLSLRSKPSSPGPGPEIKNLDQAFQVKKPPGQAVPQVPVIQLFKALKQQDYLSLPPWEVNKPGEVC
The experiment in a line: saturation binding of radio-iodinated Fab on human neutrophils. Here is the method: (§1) Each point is the mean of duplicate determinations of cell-bound radio-iodinated antibody after subtraction of non-specific binding. Data from a single neutrophil binding experiment and a representative eosinophil binding experiment, n=2 is shown.
(§2) Cytokines and antibodies were radio-iodinated using Pierce Pre-Coated Iodination tubes (Thermo Scientific) according to the manufacturer's instructions. MAb binding to cells expressing hβc was determined by incubating 1-2×10⁶ cells with radio-iodinated mAb at a range of concentrations at 23° C. for 1-2 hours with gentle mixing. Cell suspensions were then centrifuged through fetal calf serum (FCS) and radioactivity associated with the cells pellets was assessed by counting in a Wizard² 2470 Automatic Gamma Counter (Perkin Elmer, Rowville, VIC, Australia). Non-specific binding was assessed for each radio-iodinated mAb in the presence of at least a 500-fold excess of unlabeled mAb. […] Competition binding assays were performed essentially as previously described (41). Briefly 1-2×10⁶ cells were incubated with mAb or cytokine competitor at a range of concentrations at 4° C. for 45 minutes with gentle mixing. […] Cell suspensions were then centrifuged through FCS and radioactivity associated with the cells pellets assessed by counting.

The target in experiment [4] is T2, human CD131. In words: saturation binding of radio-iodinated Fab to TF1 cells (first of three values in the cell). As to the method: (§3) Cytokines and antibodies were radio-iodinated using Pierce Pre-Coated Iodination tubes (Thermo Scientific) according to the manufacturer's instructions. MAb binding to cells expressing hβc was determined by incubating 1-2×10⁶ cells with radio-iodinated mAb at a range of concentrations at 23° C. for 1-2 hours with gentle mixing. Cell suspensions were then centrifuged through fetal calf serum (FCS) and radioactivity associated with the cells pellets was assessed by counting in a Wizard² 2470 Automatic Gamma Counter (Perkin Elmer, Rowville, VIC, Australia). Non-specific binding was assessed for each radio-iodinated mAb in the presence of at least a 500-fold excess of unlabeled mAb. […] Competition binding assays were performed essentially as previously described (41). Briefly 1-2×10⁶ cells were incubated with mAb or cytokine competitor at a range of concentrations at 4° C. for 45 minutes with gentle mixing. Radio-iodinated cytokine or mAb was then added and the mixture incubated at 23° C. for a further 1-2 hours with gentle mixing. Cell suspensions were then centrifuged through FCS and radioactivity associated with the cells pellets assessed by counting.

Experiment [5] deals with T2, human CD131. In words: saturation binding of radio-iodinated Fab to TF1 cells (third of three values in the cell). Here is the method:
as §3

Experiment [6] deals with T2, human CD131. The experiment in a line: saturation binding of radio-iodinated Fab to TF1 cells (second of three values in the cell). As to the method: as §3
Experiment [7] addresses T2, human CD131. The experiment in a line: saturation binding of radio-iodinated Fab to cells; row 'Average for all cells (±SEM)' (neutrophils, TF1 cells).
The target of experiment [8] is T2, human CD131. In words: cell-based or functional assay.
For experiment [9], the target named is T2, human CD131. In words: cell-based or functional assay. The source holds these as a separate data set.
Experiment [10] concerns the target T2, human CD131. In words: saturation binding of radio-iodinated IgG on human eosinophils. Here is the method: as §1, §2
Experiment [11] concerns the target T2, human CD131. The experiment in a line: saturation binding of radio-iodinated IgG on human neutrophils. Here is the method: as §1, §2
For experiment [12], the target named is T2, human CD131. In words: saturation binding of radio-iodinated antibody to TF1 cells (first of three values in the cell). As to the method: as §3
Experiment [13] addresses T2, human CD131. In words: saturation binding of radio-iodinated antibody to TF1 cells (third of three values in the cell). Here is the method:
as §3

For experiment [14], the target named is T2, human CD131. The experiment in a line: saturation binding of radio-iodinated antibody to TF1 cells (second of three values in the cell). Here is the method: as §3
Experiment [15] has as its target T2, human CD131. In words: saturation binding of radio-iodinated antibody to human eosinophils (first of two values in the cell). Here is the method:
as §1, §2

Experiment [16] deals with T2, human CD131. The experiment in a line: saturation binding of radio-iodinated antibody to human eosinophils (second of two values in the cell). As to the method: as §1, §2
For experiment [17], the target named is T2, human CD131. In words: saturation binding of radio-iodinated antibody to cells; row 'Average for all cells (±SEM)' (neutrophils, eosinophils, TF1 cells).
In experiment [18] the target is T2, human CD131. In words: competition binding on purified human eosinophils: cells pre-incubated with the antibody, then equilibrated with 340 pM radio-iodinated IL-3; cell-bound c.p.m. As to the method:
(§4) Each point is the mean of duplicate determinations of cell-bound radioiodinated cytokine and error bars represent the standard deviation.
as §3

The target of experiment [19] is T2, human CD131. In words: competition binding on purified human eosinophils: cells pre-incubated with the antibody, then equilibrated with 200 pM radio-iodinated IL-5; cell-bound c.p.m. Here is the method: as §4, §3
Experiment [20] deals with T2, human CD131. The experiment in a line: competition binding on TF-1 cells: cells pre-incubated with the cytokine, then equilibrated with 85 pM radio-iodinated 9A2-VR24.29; cell-bound c.p.m. As to the method:
as §4, §3

B1: 9A2-VR24.29 Fab (Fab, V domains shown)
VH: EVQLLESGGGLVQPGGSLRLSCAASGFTFPWYRVHWVRQAPGKGLEWVSSIRSSGGFPYYNYKVKGRFTISRDNSKNTLYLQMNSLRAEDTAVYYCARFYDSFFDIWGQGTMVTVSS
VL: DIQMTQSPSSVSASVGDRVTITCRASQGISSWLAWYQQKPGKAPKLLIYAASSLQSGVPSRFSGSGSGTDFTLTISSLQPEDFATYYCQQANSFPITFGQGTRLEIKR
notes: recombinant Fab; also called recombinant Fab fragment of 9A2-VR24.29
For the molecule B1, the Kd in [1] was determined as 0.1 nM; in experiment [2], 0.1 nM; in the experiment with human CD131 [3] it was 0.384 nM; with human CD131 [4], 0.656 nM; with human CD131 [5], 0.522 nM; with human CD131 [6], 0.668 nM. Further, the equilibrium dissociation constant (Kd) with human CD131 [7] stood at 0.569 nM. The molecule further yielded an off-rate (koff) in experiment [1] of 0.000418 s⁻¹. In [1], this molecule had a kon of 4e+06 M⁻¹ s⁻¹.

B2: 9A2-VR24.29 (antibody, V domains shown)
VH: EVQLLESGGGLVQPGGSLRLSCAASGFTFPWYRVHWVRQAPGKGLEWVSSIRSSGGFPYYNYKVKGRFTISRDNSKNTLYLQMNSLRAEDTAVYYCARFYDSFFDIWGQGTMVTVSS
VL: DIQMTQSPSSVSASVGDRVTITCRASQGISSWLAWYQQKPGKAPKLLIYAASSLQSGVPSRFSGSGSGTDFTLTISSLQPEDFATYYCQQANSFPITFGQGTRLEIKR
notes: IgG4pK; also called 9A2-VR24.29 IgG
Consider B2, for which the “IC50 IL-3, TF-1 proliferation” value with human CD131 [8] was 0.144 nM. Further, in the experiment with human CD131 [8], the “IC50 IL-5, TF-1 proliferation” value was 4.67 nM. Besides, the “fold improvement of IC50 GM-CSF over parental 9A2” value with human CD131 [8] is 1570 fold. Further, the “fold improvement of IC50 IL-3 over parental 9A2” value with human CD131 [8] amounted to 41 fold. Besides, the “fold improvement of IC50 IL-5 over parental 9A2” value with human CD131 [8] came to 310 fold. Further, in the experiment with human CD131 [9], the “IC50 GM-CSF, TF-1 proliferation” value came out at 0.29 nM. Moreover, the Kd with human CD131 [10] was 0.629 nM; with human CD131 [11], 0.246 nM; in the experiment with human CD131 [12], 0.361 nM; with human CD131 [13] it was 0.393 nM; with human CD131 [14] it was 0.303 nM; with human CD131 [15], 0.73 nM. For the same molecule, the figures for the equilibrium dissociation constant (Kd) in the experiment with human CD131 [16] and with human CD131 [17] were 0.528 nM and 0.426 nM, respectively. The entries for the “IC50 (read off the curve)” value with human CD131 [18] and with human CD131 [19] were about 0.007 nM and about 0.3 nM, respectively.

B3: recombinant human GM-CSF (ligand, UniProt P04141 18-144, looked up)
chain: APARSYYSPSTQPWEHVNAIQEARRLLNLSRDTAAEMNETVEVISEMFDLQEPTCLQTRLELYKQGLRGSLTKLKGPLTMMASHYKQHCPPTPETSCATQIITFESFKENLKDFLLVIPFDCWEPVQE
modifications: radio-iodinated where used as label
notes: position probably counts on mature GM-CSF
As to B3, the “IC50 (read off the curve)” value in the experiment with human CD131 [20] was about 0.03 nM.

The Kd is the equilibrium constant for the complex coming apart. Usually koff stands for the rate constant with which the complex falls apart. High values mean a short-lived complex, low ones a long-lived complex. By kon is commonly meant a measure of how fast the partners come together. Higher therefore signals faster complex formation.

Values taken from patent publication US20190062438A1 (CSL, published 2019).
